# Laboratory results reported in publication PMC3496724.
# Legend:
# [1] = target: HIV-1 Tat protein (wild type, biologically active) (HIV-1 (human T lymphotropic virus type IIIB-BH-10, subtype B)) (UniProt P04610); assay: SPR; BIACORE 3000; Tat immobilised by amine coupling on a CM3 chip; Env (5–1,000 nM) flowed in PBS pH 7.4 with 0.2% Tween 20, 300 mM NaCl, 5 mg/mL dextran; blank reference surface subtracted; single-site model
# [2] = target: HIV-1 Tat protein (wild type, biologically active) (HIV-1 (human T lymphotropic virus type IIIB-BH-10, subtype B)) (UniProt P04610); assay: ITC; VP-ITC; Tat (1.25 to 4.4 µM) in the cell, trimeric Env (12.5 to 47.0 µM in protein subunit) in the syringe; PBS pH 7.4
Substance,Kd [1] [nM],T1/2 (complex dissociation half life) [1] [min],koff [1] [s⁻¹],kon [1] [M⁻¹ s⁻¹],Kd [2] [nM],stoichiometry N (Tat per gp120 subunit) [2]
"monomeric ΔV2 Env (clade B, HIV-1 SF162) (natural protein)",91,23,0.00049,5900,–,–
"trimeric wt Env (clade B, HIV-1 SF162) (natural protein)",38,23,0.00049,14000,111,1
"trimeric ΔV2 Env (clade B, HIV-1 SF162) (natural protein)",22,230,5e-05,2600,–,–
